Laboratory results as given in publication PMC11808413 (FEBS letters, 2024).
No end group written: not given here.

B1: MBP-tagged lumenal segment of Arabidopsis thaliana LTO1 (AA 251-376) (domain or fragment, UniProt Q8L540 251-376, looked up)
chain: SRSGDIELPYFRTEISSSSSPYAIALAKHLNSIGAKMYGAFWCSHCLEQKEMFGREAAKELNYVECFPDGYKKGTKILKACADAAIEGFPTWIINDKVLSGEIELAELAEMTGFSLDQANETNQLQ

Columns and labels:
[1] = biological target: the molecule itself; assay: non-reducing SDS-urea-PAGE (disulfide-linked oligomers); 5 uM desalted MBP-tagged lumenal segment, air-oxidized or with 2 mM diamide or H2O2 for 30 minutes at room temperature, non-reducing 8 % SDS-urea-PAGE; oxidants raise the share of dimers, and higher order oligomers appear for the wild type
[2] = biological target: the molecule itself; assay: non-reducing gel (disulfide-linked oligomers); air-oxidized MBP-tagged LTO1 alone (Fig. 3, lane 2)

Row | Protein | binding result [1] | binding result [2]
1 | AQLIDTVHNLFIGVGVGLPSTVMECGDMIYRSTLPKSNGLTITA (domain or fragment, UniProt Q9S713 46-89, looked up, also: MBP-tagged) [MBP-tagged lumenal segment of Arabidopsis thaliana STN7 (AA 46-89), C65S] | binds | –
2 | AQLIDTVHNLFIGVGVGLPCTVMESGDMIYRSTLPKSNGLTITA (domain or fragment, UniProt Q9S713 46-89, looked up, also: MBP-tagged) [MBP-tagged lumenal segment of Arabidopsis thaliana STN7 (AA 46-89), C70S] | binds | –
3 | B1 | – | binds
